Source: IntAct's records for PubMed 9025305

Experiments:
rbp1b_arath RANBP1B = rbp1b_arath RANBP1B (UniProt Q8RWG8)
rbp1a_arath RANBP1A = rbp1a_arath RANBP1A (UniProt Q9LMK7)
Sequence of rbp1a_arath RANBP1A (Q9LMK7 whole entry): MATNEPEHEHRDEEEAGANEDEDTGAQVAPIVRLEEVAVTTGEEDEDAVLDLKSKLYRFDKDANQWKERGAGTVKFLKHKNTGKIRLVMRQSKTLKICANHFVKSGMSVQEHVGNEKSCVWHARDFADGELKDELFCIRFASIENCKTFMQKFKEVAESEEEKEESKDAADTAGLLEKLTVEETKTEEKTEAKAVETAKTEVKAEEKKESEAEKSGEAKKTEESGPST

Sequence of GTP-binding nuclear protein Ran-1 (Arabidopsis thaliana (Mouse-ear cress)), P41916 T24D (P41916 whole entry T24D): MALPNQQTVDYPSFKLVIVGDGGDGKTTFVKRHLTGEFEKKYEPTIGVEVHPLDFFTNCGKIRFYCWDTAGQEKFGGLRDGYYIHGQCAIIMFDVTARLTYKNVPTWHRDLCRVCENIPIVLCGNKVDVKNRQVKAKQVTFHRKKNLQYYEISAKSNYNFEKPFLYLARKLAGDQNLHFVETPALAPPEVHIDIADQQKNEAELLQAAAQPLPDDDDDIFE
Sequence of rbp1b_arath RANBP1B (Q8RWG8 whole entry): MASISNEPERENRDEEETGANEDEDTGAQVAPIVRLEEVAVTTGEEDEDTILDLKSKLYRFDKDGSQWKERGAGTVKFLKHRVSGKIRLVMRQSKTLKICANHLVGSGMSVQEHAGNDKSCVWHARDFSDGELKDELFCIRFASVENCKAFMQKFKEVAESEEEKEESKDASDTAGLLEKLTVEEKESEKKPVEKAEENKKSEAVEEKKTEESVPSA

## GTP-binding nuclear protein Ran-1 (Arabidopsis thaliana (Mouse-ear cress)), P41916 T24D
rbp1b_arath RANBP1B
  effect of a mutation on the interaction: disrupting interaction
rbp1a_arath RANBP1A
  effect of a mutation on the interaction: disrupting interaction
